Data reported in patent US20170240635A1 (AGENCY FOR SCIENCE TECHNOLOGY AND RESEARCH, published 2017).
Blank lines part the entries; values can stand above or below the binder they belong to.

Assays:
[1] = biological target: T1, human PD-1 coupled to human Fc (human, UniProt Q15116 25-167, limits assumed); test: SPR (ProteOn XPR36); human PD-1-Fc immobilised, crude Fab extract flown over
T1 construct: also called human-PD-1 coupled to Fc; not shown: human Fc
Description: Briefly, human or mouse PD-1 coupled to human Fc was immobilised on a sensor chip compatible with the Proteon XPR36 bioanalyser (Biorad). Crude Fab extracts (or the control antibodies) were then flown onto the chip and the association/dissociation of each candidate Fab was then recorded and analysed, the affinity (KD) was calculated.

hCTLA4-Fc = biological target: T2, hCTLA4-Fc (human, UniProt P16410); test: ELISA; antigen coated 350 ng/well, goat anti-human Fab-HRP, absorbance 450-670 nm
T2 construct: also called human CTLA-4; human CTLA4
Description: (§1) Anti-PD-1 antibodies were tested in an ELISA assay for their ability to bind to other members of the CD28 family.
(§2) Briefly, ELISA plates were coated with 350 ng/well of one of the following antigens coupled to human Fc in carbonate buffer: human PD-1, human PD-L1, human TIM-3, human LAG-3, human ICOS, human CTLA4, human BTLA, human CD28, mouse TIM-3, or rhesus PD-1. The plate was then blocked with a solution of casein. After extensive washes in PBS Tween-20, antibodies were added into the ELISA wells in the presence of 7% milk in PBS. After 90 minutes at room temperature under agitation and extensive washes, a goat anti-human Fab antibody coupled to HRP was added. One hour later, plates were washed and TMB substrate added. The reaction was stopped with 1M HCl and optical density measured at 450 nm with a reference at 670 nm.

hICOS-Fc = biological target: T3, hICOS-Fc (human, UniProt Q9Y6W8); test: as above
T3 construct: also called human ICOS
T3 sequence (antigen, looked up): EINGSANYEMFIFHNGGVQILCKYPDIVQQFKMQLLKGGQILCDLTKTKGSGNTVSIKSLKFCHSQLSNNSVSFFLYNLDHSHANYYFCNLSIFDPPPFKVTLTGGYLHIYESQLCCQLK
Description: as §1, §2

mTim3-Fc = biological target: T4, mTim3-Fc (mouse, UniProt Q8VIM0); test: as above
T4 construct: also called mouse TIM-3
Description: as §1, §2

[2] = biological target: T5, human PD-L1 coupled to human Fc (human, UniProt Q9NZQ7 19-239, limits assumed); test: as above
T5 construct: ELISA coating antigen; not shown: human Fc
Description: as §1, §2

[3] = biological target: T6, human TIM-3 coupled to human Fc (human, UniProt Q8TDQ0 22-200, limits assumed); test: as above
T6 construct: not shown: human Fc
Description: as §1, §2

[4] = biological target: T7, human LAG-3 coupled to human Fc (human, UniProt P18627 23-450, limits assumed); test: as above
T7 construct: ELISA coating antigen; not shown: human Fc
T7 sequence (looked up): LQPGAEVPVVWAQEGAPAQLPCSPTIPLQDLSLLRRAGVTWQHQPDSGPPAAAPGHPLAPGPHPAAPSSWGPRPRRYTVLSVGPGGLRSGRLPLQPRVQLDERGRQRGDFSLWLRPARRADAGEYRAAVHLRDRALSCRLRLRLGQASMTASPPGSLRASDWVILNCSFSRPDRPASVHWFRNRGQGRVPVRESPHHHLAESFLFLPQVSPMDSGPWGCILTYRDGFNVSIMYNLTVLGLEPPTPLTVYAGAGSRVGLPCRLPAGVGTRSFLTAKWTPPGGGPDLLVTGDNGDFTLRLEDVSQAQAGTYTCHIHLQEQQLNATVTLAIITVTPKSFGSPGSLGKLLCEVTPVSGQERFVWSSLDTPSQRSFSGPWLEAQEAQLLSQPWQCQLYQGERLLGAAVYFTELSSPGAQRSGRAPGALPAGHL
Description: as §1, §2

[5] = biological target: T8, human BTLA coupled to human Fc (human, UniProt Q7Z6A9 31-150, limits assumed); test: as above
T8 construct: ELISA coating antigen; not shown: human Fc
Description: as §1, §2

[6] = biological target: T9, human CD28 coupled to human Fc (human, UniProt P10747 19-152, limits assumed); test: as above
T9 construct: ELISA coating antigen; not shown: human Fc
Description: as §1, §2

[7] = biological target: T10, PD-1 on exhausted human T cells (human, UniProt Q15116 25-288); test: flow cytometry (MFI); IgG4 on human T cells activated 7 days with allogeneic DCs, fluorescent secondary antibody
T10 construct: whole, on cells; T cells exhausted by 7 days of culture with allogeneic monocyte-derived dendritic cells
Description: 50,000 T cells isolated from a healthy donor were incubated in the presence of 5,000 monocyte-derived DCs from another donor for 7 days at 37° C. Antibodies, expressed as IgG4, were incubated with such activated T cells for 30 minutes in PBS. After a wash in PBS, a fluorescent labelled secondary antibody was added for 30 minutes and then washed in PBS. Cells were resuspended in FACS buffer and binding of the antibody to the cells was monitored by flow cytometry (FIGS. 6 and 7).

T10 sequence (Q15116 25-288): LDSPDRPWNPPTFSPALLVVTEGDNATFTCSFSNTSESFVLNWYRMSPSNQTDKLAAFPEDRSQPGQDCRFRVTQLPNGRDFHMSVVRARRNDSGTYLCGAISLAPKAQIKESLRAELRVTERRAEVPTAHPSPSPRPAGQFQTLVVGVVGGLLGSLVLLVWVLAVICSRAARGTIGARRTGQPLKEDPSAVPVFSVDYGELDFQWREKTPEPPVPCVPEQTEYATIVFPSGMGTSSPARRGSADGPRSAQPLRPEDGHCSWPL
T2 sequence (P16410 37-162 limits assumed): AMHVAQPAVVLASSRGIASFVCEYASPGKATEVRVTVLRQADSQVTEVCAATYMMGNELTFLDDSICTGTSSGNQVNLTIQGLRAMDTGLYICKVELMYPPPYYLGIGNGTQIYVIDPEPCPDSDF
T4 sequence (Q8VIM0 20-191 limits assumed): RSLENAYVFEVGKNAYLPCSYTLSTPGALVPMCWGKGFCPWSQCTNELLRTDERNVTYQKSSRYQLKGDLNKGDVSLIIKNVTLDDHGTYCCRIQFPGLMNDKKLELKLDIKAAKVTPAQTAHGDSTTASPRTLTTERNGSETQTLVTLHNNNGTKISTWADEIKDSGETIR
T1 sequence (Q15116 25-167 limits assumed): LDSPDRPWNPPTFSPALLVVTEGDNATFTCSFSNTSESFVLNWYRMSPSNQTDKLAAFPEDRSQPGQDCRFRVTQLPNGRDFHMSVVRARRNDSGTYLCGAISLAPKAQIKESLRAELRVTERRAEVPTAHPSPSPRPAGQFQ
T8 sequence (Q7Z6A9 31-150 limits assumed): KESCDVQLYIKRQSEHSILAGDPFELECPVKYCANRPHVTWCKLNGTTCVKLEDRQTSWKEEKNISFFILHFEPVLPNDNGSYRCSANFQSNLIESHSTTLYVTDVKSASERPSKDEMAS
T5 sequence (Q9NZQ7 19-239 limits assumed): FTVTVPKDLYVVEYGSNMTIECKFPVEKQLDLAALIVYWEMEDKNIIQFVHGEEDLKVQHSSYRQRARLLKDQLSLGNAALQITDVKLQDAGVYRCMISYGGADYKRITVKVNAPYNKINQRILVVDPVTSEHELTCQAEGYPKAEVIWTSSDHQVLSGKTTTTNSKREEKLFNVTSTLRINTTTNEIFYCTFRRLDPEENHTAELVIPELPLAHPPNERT

Kd [1]: 0.1 nM
binding result (hCTLA4-Fc): no binding (tested: not given)
binding result (hICOS-Fc): no binding (tested: not given)
binding result (mTim3-Fc): no binding (tested: not given)
binding result [2]: no binding (tested: not given)
binding result [3]: no binding (tested: not given)
binding result [4]: no binding (tested: not given)
binding result [5]: no binding (tested: not given)
binding result [6]: no binding (tested: not given)
B1: anti-PD-1 antibody clone G2 (Fab) (Fab, V domains shown)
VH: QVQLVESGGGVVQPGRSLRLSCAASGFTFSSYGMHWVRQAPGKGLEWVAVISYDGSNKYYADSVKGRFTISRDNSKNTLYLQMNSLRAEDTAVYYCASDLGAGPYYYGMDVWGQGTTVTVSS
VL: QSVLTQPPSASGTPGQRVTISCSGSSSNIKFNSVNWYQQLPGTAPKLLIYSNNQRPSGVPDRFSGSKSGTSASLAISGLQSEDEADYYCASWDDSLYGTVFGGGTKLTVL
notes: Crude Fab extract in SPR

EC50 [7]: 0.78 nM
B2: G2 (antibody, IgG4, V domains shown)
VH: QVQLVESGGGVVQPGRSLRLSCAASGFTFSSYGMHWVRQAPGKGLEWVAVISYDGSNKYYADSVKGRFTISRDNSKNTLYLQMNSLRAEDTAVYYCASDLGAGPYYYGMDVWGQGTTVTVSS
VL: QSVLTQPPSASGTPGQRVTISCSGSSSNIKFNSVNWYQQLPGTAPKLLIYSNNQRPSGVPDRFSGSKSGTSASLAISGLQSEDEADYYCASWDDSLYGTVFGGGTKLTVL
notes: also called anti-PD-1 antibody clone G2 (human IgG4)

EC50 [7]: 0.281 nM
B3: C4 (antibody, IgG4, V domains shown)
VH: QVQLVESGGGVVQPGRSLRLSCAASGFTFSSYGMHWVRQAPGKGLEWVAVISYDGSNKYYADSVKGRFTISRDNSKNTLYLQMNSLRAEDTAVYYCASDLGAGPYYYGLDVWGQGTTVTVSS
VL: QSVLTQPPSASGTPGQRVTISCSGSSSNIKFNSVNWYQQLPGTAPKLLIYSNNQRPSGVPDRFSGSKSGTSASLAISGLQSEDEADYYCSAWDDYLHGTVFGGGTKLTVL
notes: also called anti-PD-1 antibody clone C4 (human IgG4)

EC50 [7]: 0.375 nM
B4: H9 (antibody, IgG4, V domains shown)
VH: QVQLVESGGGVVQPGRSLRLSCAASGFTFSSYGMHWVRQAPGKGLEWVAVISYDGSNKYYADSVKGRFTISRDNSKNTLYLQMNSLRAEDTAVYYCASDLGAGPYYYGMDVWGQGTTVTVSS
VL: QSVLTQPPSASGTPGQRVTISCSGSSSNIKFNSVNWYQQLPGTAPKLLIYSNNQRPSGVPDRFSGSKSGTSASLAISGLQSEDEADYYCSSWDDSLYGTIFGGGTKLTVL
notes: also called anti-PD-1 antibody clone H9 (human IgG4)

EC50 [7]: 0.318 nM
B5: D4 (antibody, IgG4, V domains shown)
VH: QVQLVESGGGVVQPGRSLRLSCAASGFTFSSYGMHWVRQAPGKGLEWVAVISYDGSNKYYADSVKGRFTISRDNSKNTLYLQMNSLRAEDTAVYYCASDLGAGPYYYGMDVWGQGTTVTVSS
VL: QSVLTQPPSASGTPGQRVTISCSGSSSNIKFNSVNWYQQLPGTAPKLLIYSNNQRPSGVPDRFSGSKSGTSASLAISGLQSEDEADYYCASWDDYVRGTMFGGGTKLTVL
notes: also called anti-PD-1 antibody clone D4 (human IgG4)

binding result (hCTLA4-Fc): no binding (tested: not given)
binding result (hICOS-Fc): no binding (tested: not given)
binding result (mTim3-Fc): no binding (tested: not given)
binding result [2]: no binding (tested: not given)
binding result [3]: no binding (tested: not given)
binding result [4]: no binding (tested: not given)
binding result [5]: no binding (tested: not given)
binding result [6]: no binding (tested: not given)
B6: anti-PD-1 antibody clone H9 (Fab) (Fab, V domains shown)
VH: QVQLVESGGGVVQPGRSLRLSCAASGFTFSSYGMHWVRQAPGKGLEWVAVISYDGSNKYYADSVKGRFTISRDNSKNTLYLQMNSLRAEDTAVYYCASDLGAGPYYYGMDVWGQGTTVTVSS
VL: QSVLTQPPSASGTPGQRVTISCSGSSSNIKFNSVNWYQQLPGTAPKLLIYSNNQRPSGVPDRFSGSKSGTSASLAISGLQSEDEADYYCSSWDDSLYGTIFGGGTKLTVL
notes: Crude Fab extract in SPR

Kd [1]: 0.08 nM
binding result (hCTLA4-Fc): no binding (tested: not given)
binding result (hICOS-Fc): no binding (tested: not given)
binding result (mTim3-Fc): no binding (tested: not given)
binding result [2]: no binding (tested: not given)
binding result [3]: no binding (tested: not given)
binding result [4]: no binding (tested: not given)
binding result [5]: no binding (tested: not given)
binding result [6]: no binding (tested: not given)
B7: anti-PD-1 antibody clone A10 (Fab) (Fab, V domains shown)
VH: QVQLVQSGGGVVQPGRSLRLSCAASGFTFSSYGMHWVRQAPGKGLEWVAVISYDGSNKYYADSVKGRFTISRDNSKNTLYLQMNSLRAEDTAVYYCASDLGAGPYYYGKDVWGQGTTVTVSS
VL: LPVLTQPPSASGTPGQRVTISCSGSSSNIKFNSVNWYQQLPGTAPKLLIYSNNQRPSGVPDRFSGSKSGTSASLAISGLQSEDEADYFCASWDDYYYGTIFGGGTKLTVL
notes: Crude Fab extract in SPR

EC50 [7]: 0.738 nM
B8: G1 (antibody, IgG4, V domains shown)
VH: QVQLVESGGGVVQPGRSLRLSCAASGFTFSSYGMHWVRQAPGKGLEWVAVISYDGSNKYYADSVKGRFTISRDNSKNTLYLQMNSLRAEDTAVYYCASDLGAGPYYYGMDVWGQGTTVTVSS
VL: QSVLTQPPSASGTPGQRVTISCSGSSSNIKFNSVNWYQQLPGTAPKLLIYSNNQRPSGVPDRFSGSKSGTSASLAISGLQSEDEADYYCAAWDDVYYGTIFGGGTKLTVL
notes: also called anti-PD-1 antibody clone G1 (human IgG4)

EC50 [7]: 0.532 nM
B9: G10 (antibody, IgG4, V domains shown)
VH: QVQLVESGGGVVQPGRSLRLSCAASGFTFSSYGMHWVRQAPGKGLEWVAVISYDGSNKYYADSVKGRFTISRDNSKNTLYLQMNSLRAEDTAVYYCASDYGAGPYYYGMDVWGQGTTVTVSS
VL: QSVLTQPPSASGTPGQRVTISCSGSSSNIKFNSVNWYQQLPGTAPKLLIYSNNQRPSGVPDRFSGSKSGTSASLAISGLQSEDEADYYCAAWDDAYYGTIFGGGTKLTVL
notes: also called anti-PD-1 antibody clone G10 (human IgG4)

EC50 [7]: 0.158 nM
B10: B6 (antibody, IgG4, V domains shown)
VH: QVQLVESGGGVVQPGRSLRLSCAASGFTFSSYGMHWVRQAPGKGLEWVAVISYDGSNKYYADSVKGRFTISRDNSKNTLYLQMNSLRAEDTAVYYCASDYGAGPYYYGMDVWGQGTTVTVSS
VL: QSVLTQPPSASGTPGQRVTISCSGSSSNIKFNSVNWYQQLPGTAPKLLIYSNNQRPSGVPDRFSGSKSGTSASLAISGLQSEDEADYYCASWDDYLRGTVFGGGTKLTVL
notes: also called anti-PD-1 antibody clone B6 (human IgG4)

Kd [1]: 0.2 nM
binding result (hCTLA4-Fc): no binding (tested: not given)
binding result (hICOS-Fc): no binding (tested: not given)
binding result (mTim3-Fc): no binding (tested: not given)
binding result [2]: no binding (tested: not given)
binding result [3]: no binding (tested: not given)
binding result [4]: no binding (tested: not given)
binding result [5]: no binding (tested: not given)
binding result [6]: no binding (tested: not given)
B11: anti-PD-1 antibody clone A3 (Fab) (Fab, V domains shown)
VH: QVQLVQSGGGVVQPGRSLRLSCAASGFTFSSYGMHWVRQAPGKGLEWVAVISYDGSNKYYADSVKGRFTISRDNSKNTLYLQMNSLRAEDTAVYYCASDLGAGPYYYGKDHWGQGTTVTVSS
VL: LPVLTQPPSASGTPGQRVTISCSGSSSNIKFNSVNWYQQLPGTAPKLLIYSNNQRPSGVPDRFSGSKSGTSASLAISGLQSEDEADYFCASWDDVLYGSVFGGGTKLTVL
notes: Flown as crude Fab extract in SPR

EC50 [7]: 0.542 nM
B12: E1 (antibody, IgG4, V domains shown)
VH: QVQLVESGGGVVQPGRSLRLSCAASGFTFSSYGMHWVRQAPGKGLEWVAVISYDGSNKYYADSVKGRFTISRDNSKNTLYLQMNSLRAEDTAVYYCASDLGAGPYYYGMDVWGQGTTVTVSS
VL: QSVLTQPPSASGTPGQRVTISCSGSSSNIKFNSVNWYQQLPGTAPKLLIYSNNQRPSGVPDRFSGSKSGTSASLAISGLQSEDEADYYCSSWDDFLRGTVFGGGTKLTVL
notes: also called anti-PD-1 antibody clone E1 (human IgG4)

EC50 [7]: 0.189 nM
B13: H4 (antibody, IgG4, V domains shown)
VH: QVQLVESGGGVVQPGRSLRLSCAASGFTFSSYGMHWVRQAPGKGLEWVAVISYDGSNKYYADSVKGRFTISRDNSKNTLYLQMNSLRAEDTAVYYCASDLGSGYYLYGMDVWGQGTTVTVSS
VL: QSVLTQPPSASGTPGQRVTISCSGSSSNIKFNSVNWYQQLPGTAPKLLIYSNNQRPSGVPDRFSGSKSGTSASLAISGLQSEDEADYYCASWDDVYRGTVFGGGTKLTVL
notes: also called anti-PD-1 antibody clone H4 (human IgG4)

EC50 [7]: 0.446 nM
B14: F2 (antibody, IgG4, V domains shown)
VH: QVQLVESGGGVVQPGRSLRLSCAASGFTFSSYGMHWVRQAPGKGLEWVAVISYDGSNKYYADSVKGRFTISRDNSKNTLYLQMNSLRAEDTAVYYCASDLGAGPYYYGMDVWGQGTTVTVSS
VL: QSVLTQPPSASGTPGQRVTISCSGSSSNIKFNSVNWYQQLPGTAPKLLIYSNNQRPSGVPDRFSGSKSGTSASLAISGLQSEDEADYYCSSWDDDARGTIFGGGTKLTVL
notes: also called anti-PD-1 antibody clone F2 (human IgG4)
